Laboratory results: PMC4780735

B1: BaeS sensory kinase tagged with monomeric yellow fluorescent protein (BaeS-mYFP) [E. coli] / itself (parent)
chain: MKFWRPGITGKLFLAIFATCIVLLISMHWAVRISFERGFIDYIKHGNEQRLQLLSDALGEQYAQHGNWRFLRNNDRFVFQILRSFEHDNSEDKPGPGMPPHGWRTQFWVVDQNNKVLVGPRAPIPPDGTRRPILVNGAEVGAVIASPVERLTRNTDINFDKQQRQTSWLIVALATLLAALATFLLARGLLAPVKRLVDGTHKLAAGDFTTRVTPTSEDELGKLAQDFNQLASTLEKNQQMRRDFMADISHELRTPLAVLRGELEAIQDGVRKFTPETVASLQAEVGTLTKLVDDLHQLSMSDEGALAYQKAPVDLIPLLEVAGGAFRERFASRGLKLQFSLPDSITVFGDRDRLMQLFNNLLENSLRYTDSGGSLQISAGQRDKTVRLTFADSAPGVSDDQLQKLFERFYRTEGSRNRASGGSGLGLAICLNIVEAHNGRIIAAHSPFGGVSITVELPLERDLQREV

Variants of: B1
Test: fluorescence anisotropy (homo-FRET) on cells
Conditions: with itself; ΔbaeS cells; Copper (10 μM) added at about 45 sec; plateau read at about 200-300 sec, before EDTA (100 μM); parent: 0.79; read off a plot

response | Variant
0.95 r/r0 | chain 1 H45A H65A H87A H101A
